Experiment [1] deals with TirM-TarP FL (full-length C. caviae GPIC TarP fused to TirM) (Chlamydia caviae strain GPIC).
In experiment [2] the target is TirM-ΔVBS1 (TarP VBD deleted for VBS1, Thr714-Arg832, fused to TirM) (Chlamydia caviae strain GPIC).

For the substance vinculin (natural protein), the frequency of vinculin recruitment to Δtir EPEC-clustered TirM fusion at the plasma membrane of Cos7 cells (immunofluorescence), TarP-FL relative to TirM-TarP1-714 in experiment [1] turned out to be 3 fold. The substance further yielded a frequency of vinculin recruitment to Δtir EPEC-clustered TirM fusion at the plasma membrane of Cos7 cells (immunofluorescence), decrease relative to WT VBD in experiment [2] of 1.6 fold.

The record behind these values is PMC4663276.
